We go through one molecule from publication PMC11116815.

This experiment addresses T1, chemokine (C-C motif) receptor (CCR)1 (human (endogenous in THP-1 and human monocytes)) (UniProt P32246).
T1 sequence: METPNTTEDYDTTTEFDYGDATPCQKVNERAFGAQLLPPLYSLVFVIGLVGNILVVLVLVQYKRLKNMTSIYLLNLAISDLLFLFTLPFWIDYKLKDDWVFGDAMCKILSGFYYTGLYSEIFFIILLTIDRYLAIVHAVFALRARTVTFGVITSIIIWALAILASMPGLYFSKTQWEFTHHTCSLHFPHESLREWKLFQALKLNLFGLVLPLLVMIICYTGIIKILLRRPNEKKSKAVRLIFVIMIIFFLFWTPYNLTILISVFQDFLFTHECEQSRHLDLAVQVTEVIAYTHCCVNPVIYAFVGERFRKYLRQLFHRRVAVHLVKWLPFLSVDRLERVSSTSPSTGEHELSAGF

B1: CCL23_(25-99) (ligand)
chain: RFHATSADCCISYTPRSIPCSLLESYFETNSECSKPGVIFLTKKGRRFCANPSDKQVQVCMRMLKLDTRIKTRKN
As to B1, the EC50 of CCL23 for Gαi activation (TRUPATH BRET biosensor: Gαi1-Rluc8, Gβ3, Gγ9-GFP2) in HEK293T cells transfected with untagged CCR1 alone was determined as 0.3 nM.
